Laboratory results as given in the supplement of paper PMC12764529.
± gives the half width of the 95% confidence interval.

Assay: folding stability dG unfold from chymotrypsin proteolysis; higher = more stable
Outline: (§1)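 How resistant each design was to proteolysis was captured as K50, inferred by Bayesian fitting of sequencing counts. Unfolding free energy was then derived relative to a sequence-predicted unfolded-state K50 and a shared folded-state K50, per protease or combined. Digestion used trypsin and chymotrypsin at 11 threefold-diluted concentrations plus a no-protease condition, on mini-proteins under 80 residues without cysteine in a PA-tagged cDNA display construct. Designs were kept only when AlphaFold2 dimer inter-PAE was above 15.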

Sequence | folding stability dG unfold
SAGPPEFELVGEFEAEAPGGVPVRVRVIRLPGGDVLVVVTHPDDTVTLGFIPAETGEWHLALSFPADVLSAG [r5_750_TrMRF] | 2.369 ± 0.014 kcal/mol
SAGMMVVVELTVGFEPDEIEPEEIREAIEEHAAEVEIDPNPETDILPIRVIAEPGKIEAIVDALKEAGGSAG [r5_378_TrMRF] | 0.0668 ± 0.19 kcal/mol
SAGGSAGGSMTTKTFKLPDGRTVTVTTEKLPNGTTKTTVTITVPGTGKTTTVPASEVPADFSGSAGGSAGGS [r12_797_JUSTAS] | 2.08 ± 0.025 kcal/mol
SAGGWYERIKEWAKDKGLKVDIEPTSFDPPNGWMPFEIEFPNGKKIDITFPDSPDQMLWMIRNMIKNSAGGS [r16_153_TrROS] | 2.16 ± 0.09 kcal/mol
SAGYVEPYEDGMVKIDSTFFLNDWVFKVDWWIMPNGNIMISIEPIEPIPPPPPVPIDADDPEQKEEAQQSAG [r5_715_TrROS] | 2.69 ± 0.069 kcal/mol
SAGMVITLERTIPPTVSVSPEEAVAAIKAELEATPGVTVTAVNSVTVTPLPDGTLRVTVDIVVDRPEPSAGG [r19_396_JUSTAS] | 2.634 ± 0.024 kcal/mol
SAGGGFDLEFVTPDGRRIRVEVKRILSYDPEKGYLVMEVKVTIYHPDKPIEIDGIIVFPPGFPPGAGGSAGG [r13_823_TrMRF] | 4 ± 0.17 kcal/mol
SSMPTTVTLTNPADSTTTPLPVPSNISVETTTLPDGSTAGTVTVTDPSTGKTTTITFSGPNTLTSTSATSSA [r9_467_JUSTAS] | 0.398 ± 0.26 kcal/mol
SAGGMSVKIEEKTHPETNEITINVEYDDIEKAKKEIAEKIKKENGNIPVTLVDKNGKPITIPLKELISAGGS [r8_236_JUSTAS] | 0.368 ± 0.03 kcal/mol
SAGGSAGGSAGGEDPNLKSKTITKKVEKGKLDSSKNITDSSGNTSIITVENNTITITIVSSAGGSAGGSAGG [r7_97_JUSTAS] | 1.66 ± 0.049 kcal/mol
SAAEKLPDGTIVIKLTEEEYKKLTEEEIEKIKEELKKEYPENVTVEIKPTKAKKIPTEPFEKGEKYNESSAG [r14_312_JUSTAS] | -0.267 ± 0.37 kcal/mol
SAGGSAGGSKKIMIPGSPDTAFSTIKEWIRNGHEVPIYYYSPGNPEPVAEQEITIDEEENDELSAGGSAGGS [r12_241_TrROS] | -0.183 ± 0.21 kcal/mol
SAGGPNWYLKVKIEHRYPNPDNGKWQERRMEVIIPFKDPDQLPPNALKKLIDIMQPMGFRVDVELFPWSAGG [r13_926_TrROS] | 3.99 ± 0.12 kcal/mol
SAGGSAGGSAAITIEVKPGETVTITLEIEVELPPGARAADGRTFKPGEKVRVTVTLTLRVEPSAGGSAGGSA [r18_450_TrROS_Hall] | 4.21 ± 0.27 kcal/mol
SAGGSASPVTVTYTDPNSTVLESVYTPSSGIVYVKYKVGDKWYLVTVKLDPSGSSVSSVTKEPLPPSAGGSA [r15_297_JUSTAS] | 2.13 ± 0.041 kcal/mol
SAGGSAGGGGPGAPAVPTVSINIKIEEGEKVTIRNGTNKDEIIKSTKEEAEKKGKKVTVETVEGSAGGSAGG [r6_869_JUSTAS] | 1.26 ± 0.24 kcal/mol
SWLKLPPGQKVITFQFQYPLPPGQSADDLVDNMEKELREFFGPGVKIEVNVQWDPNNGYFRVSVTIVIPKSA [r9_657_TrROS] | 1.21 ± 0.17 kcal/mol
SAGGSDKVVEIPIDIPNGYTVTIRMHPDDGTARVEVSPNMPPNRVLEKIKKIFDDNGYRILPIEIVSAGGSA [r2_497_TrROS] | 0.796 ± 0.053 kcal/mol
SAGGKILVPLEVLKEIEEAGLVDEVVENPDGPASLTVTSSKPAKLFGKPVIGFVRRGPDGKPVVEIIPSAGG [r13_163_TrMRF] | 0.0505 ± 0.13 kcal/mol
SAGGEIEVEVLEVDPETGEVLLKITFDAEPEVIDFLVSLGFDPEHISDDGDGKVTAIVRAPPDLTIASAGGS [r16_755_TrMRF] | 3.02 ± 0.061 kcal/mol
SAGGVTIEVDPGTGKVTITFPDGSSATIEVPPDERAVLFVKEGEGEVEVALVREDDPEALEKALELGSAGGS [r16_623_TrMRF] | 1.34 ± 0.058 kcal/mol

Assay: folding stability dG unfold (combined trypsin and chymotrypsin); higher = more stable
Outline: as §1

Sequence | folding stability dG unfold
SAGGSAGGSRKIPIWIPPGMPPEQLEHFVRFIAGENGWKIKSVEIKDVDPANNWVKIDIEVKWSAGGSAGGS [r12_168_TrROS] | 2.67 ± 0.11 kcal/mol
SAGGPEIRLRVRRPVRLTRRELLPDGTWRTLPARPGYEELEITFTGPEETARRLREELERLGYEVEEVSAGG [r13_452_TrMRF] | 2.44 ± 0.12 kcal/mol
SAGMIDYIEIKPEKLPNGKYKVTITIYDSSTGTTTTYEKEMTPEEAKELAEKIKESNPDKPVKFGNLESAGG [r19_317_JUSTAS] | 1.93 ± 0.2 kcal/mol
SAGGSAGGSAGTIENVTVVGSKEFTAPGGVPTLIEYAKLPDGGTYTVTWTGDTTTTTVFPSAGGSAGGSAGG [r17_294_JUSTAS] | 0.624 ± 0.069 kcal/mol
SAGGSAGGSAGDAPPGATLTLNIELELTLKVVDPSTGELVEERKLRIPLTLTYVLDDDDLSAGGSAGGSAGG [r11_970_TrMRF] | 3.8 ± 0.43 kcal/mol
SAGGSAGGSMKTIELPNGMKITVEKDEETGVYTITITFPDGSKKTITVPKGTSLEDLVIEIKPSAGGSAGGS [r12_261_TrROS_Hall] | 4.04 ± 0.13 kcal/mol
SAGGSAGGSAGGIHIPAYEAIDFAKENADNGEPVPIEVHNPGNGKPEEREITPDDLDKISAGGSAGGSAGGS [r10_779_TrROS] | 0.454 ± 0.06 kcal/mol
SAMVTIDYETLKELYEAGDPAKVEEILKKAYEEDPNKTITVIVPEDEKYKNLVLEAAKKMGLPITITGPSAG [r14_236_JUSTAS] | 2.83 ± 0.073 kcal/mol
SAGGMEFTPDQFLIIVLGLPDDTLEVAIIPAGDIEKAFEELGFPLEEVDILEIVEADLTPEEAEELAESAGG [r13_850_TrMRF] | 1.68 ± 0.088 kcal/mol
SAGGSAGGSAGGSFGAVKARFKVEFVARAEDGSLYPVELEFEVEVPVLPPLPFLHPDLFSAGGSAGGSAGGS [r4_325_TrMRF] | 2.18 ± 0.068 kcal/mol
